The record followed here is paper PMC8617172, “Architecture of the outer-membrane core complex from a conjugative type IV secretion system” (Nature Communications, 2021).

Test in all cases: cryo-EM structure; OMCC of TraB-strep, TraK and TraV co-expressed in E. coli, purified from membranes in 50 mM Tris-HCl pH 7.5, 300 mM NaCl, 0.23% w/v LDAO; 0.1 mg/ml on Lacey grids with ultrathin carbon; single-particle maps with C17 (inner ring, 3.3 Å), C13 (outer ring, 3.4 Å) and C1 (5.7 Å) symmetry
Series [1] addresses TraB (pED208 F-T4SS outer-membrane core complex protein, VirB10 homologue), strep-tagged (E. coli (plasmid pED208)).
Series [2] addresses TraV (pED208 F-T4SS outer-membrane core complex lipoprotein, VirB7 homologue) (E. coli (plasmid pED208)) (UniProt P41069).
Series [3] deals with the molecule itself.

“TraK (pED208 F-T4SS outer-membrane core complex protein, VirB9 homologue) (natural protein)”: the stoichiometry N (TraK per TraB) in series [1] was 1.53.
Molecule “TraB (pED208 F-T4SS outer-membrane core complex protein, VirB10 homologue), strep-tagged (natural protein)” showed a stoichiometry N in series [1] of 17 chains.
For “TraV (pED208 F-T4SS outer-membrane core complex lipoprotein, VirB7 homologue) (from UniProt P41069 19-171) (natural protein)”, the stoichiometry N in series [2] was found to be 26 chains. The molecule further came in with a stoichiometry N (TraV per TraB) in series [1] of 1.53.

B1: TraK (pED208 F-T4SS outer-membrane core complex protein, VirB9 homologue) (natural protein)
chain: AQSPATISLPQGGQFRLSISNTDPNMIFIPGDKVTAITAPGGMLADKRLTTAGGVLFTSVATRTFTIFVETALGQTFSVVATPVKGEGRVYRLMSAEPPSRPETRKWETAQAYEKLLISLNRAVLTGDIPDGYGEVKPLSDGIRLPGGFSVTPLKAWAGDQLRADRYELRNANTWGVALREQDFWKPGVRAVMFDNNAQTLMGGGRMTVTVIRGNG
notes: TraK1 and TraK2 are two conformations of the same chain; 26 copies in the whole OMCC; also called TraK (VirB9); TraK1
B1: in series [3], the “stoichiometry N” value amounted to 26 chains.
